From patent publication US20040259112A1

Columns and labels:
[1] = biological target: human vimentin (full length) (human) (UniProt P08670); test: quantitative FACS (quantum simply cellular beads) on MCF-7 cells at saturating antibody (50 µg)
[2] = biological target: human vimentin (full length) (human) (UniProt P08670); test: Scatchard analysis, intact cell radioimmunoassay with 125I-labeled antibody on MDA/mito cells; average of 5 determinations
[3] = biological target: human vimentin (full length) (human) (UniProt P08670); test: cell-based or functional assay
[4] = biological target: human vimentin (full length) (human) (UniProt P08670); test: quantitative FACS (quantum simply cellular beads) on MCF-7/AR cells at saturating antibody (50 µg)
[5] = biological target: human vimentin (full length) (human) (UniProt P08670); test: quantitative FACS (quantum simply cellular beads) on HL60 cells at saturating antibody (40 µg)
[6] = biological target: human vimentin (full length) (human) (UniProt P08670); test: FACS, indirect immunofluorescence on HL60 cells with 2.5 µg to 40 µg antibody; isotype control subtracted
[7] = biological target: human vimentin (full length) (human) (UniProt P08670); test: Scatchard analysis, intact cell radioimmunoassay with 125I-labeled antibody on MDA cells
[8] = biological target: human vimentin (full length) (human) (UniProt P08670); test: quantitative FACS (quantum simply cellular beads) on HL60/AR cells at saturating antibody (40 µg)

Sequence of human vimentin (full length) (human) (P08670 other isoform, or with tags, fused parts or gaps limits assumed): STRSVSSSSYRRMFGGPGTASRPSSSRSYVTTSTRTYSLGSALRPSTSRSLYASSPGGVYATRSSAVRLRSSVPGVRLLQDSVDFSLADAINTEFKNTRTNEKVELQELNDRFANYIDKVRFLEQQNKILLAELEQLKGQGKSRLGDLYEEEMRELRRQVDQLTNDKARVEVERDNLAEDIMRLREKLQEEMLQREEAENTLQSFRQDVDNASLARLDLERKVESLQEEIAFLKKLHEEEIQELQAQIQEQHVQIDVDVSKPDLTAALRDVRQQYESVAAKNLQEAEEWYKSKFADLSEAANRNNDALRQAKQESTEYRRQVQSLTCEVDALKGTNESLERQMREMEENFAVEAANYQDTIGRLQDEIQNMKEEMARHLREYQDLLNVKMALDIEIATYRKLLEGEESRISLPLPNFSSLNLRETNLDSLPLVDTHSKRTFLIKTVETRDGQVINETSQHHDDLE

antibody molecules bound per cell (molecules of vimentin per cell) (molecules per cell) [1]: 14600
Kd [2]: 5.7 nM
% internalization of 125I-labeled antibody, MCF-7/AR cells in suspension (difference between 4 and 37° C.) [3]: 38.2%
percent internalization of vimentin, adherent MCF-7/AR cells (difference between 4 and 37° C.) [3]: 11.3%
percent internalization of vimentin, adherent MDA cells (difference between 4 and 37° C.) [3]: 25.3%
percent internalization of vimentin, adherent MDA/AR cells (difference between 4 and 37° C.) [3]: 24.8%
percent internalization of vimentin, adherent MDA/mito cells (difference between 4 and 37° C.) [3]: 8.9%
antibody molecules bound per cell (molecules of vimentin per cell) (molecules per cell) [4]: 22000
antibody molecules bound per cell (molecules of vimentin per cell) (molecules per cell) [5]: 186
fluorescence intensity (RFI) [6]: 0.2 to 0.9 RFI
Kd [7]: 9.3 nM
antibody molecules bound per cell (molecules of vimentin per cell) (molecules per cell) [8]: 5050
Substance: mouse monoclonal anti-vimentin antibody (clone V9, NeoMarker MS-129-P)
increase in cytotoxicity of 125I-labeled antibody on HL60/AR against HL60 (MTT based assay) [3]: 10%
